Molecular target: T1, HasR TonB box dodecamer peptide (Serratia marcescens)
T1 chain: ALDSLTVLGAGG
Test: ITC

B1: TonBCTD CTD (protein)
chain: not shown
  Kd: ~50 µM

Reference: paper PMC3602595 (2013)
